This experiment concerns the target T1, Mcx1^Y174A-3xFLAG (pore-1 loop Y174A), purified recombinant (S. cerevisiae, UniProt P38323 14-520, Y174A).
T1 sequence (looked up): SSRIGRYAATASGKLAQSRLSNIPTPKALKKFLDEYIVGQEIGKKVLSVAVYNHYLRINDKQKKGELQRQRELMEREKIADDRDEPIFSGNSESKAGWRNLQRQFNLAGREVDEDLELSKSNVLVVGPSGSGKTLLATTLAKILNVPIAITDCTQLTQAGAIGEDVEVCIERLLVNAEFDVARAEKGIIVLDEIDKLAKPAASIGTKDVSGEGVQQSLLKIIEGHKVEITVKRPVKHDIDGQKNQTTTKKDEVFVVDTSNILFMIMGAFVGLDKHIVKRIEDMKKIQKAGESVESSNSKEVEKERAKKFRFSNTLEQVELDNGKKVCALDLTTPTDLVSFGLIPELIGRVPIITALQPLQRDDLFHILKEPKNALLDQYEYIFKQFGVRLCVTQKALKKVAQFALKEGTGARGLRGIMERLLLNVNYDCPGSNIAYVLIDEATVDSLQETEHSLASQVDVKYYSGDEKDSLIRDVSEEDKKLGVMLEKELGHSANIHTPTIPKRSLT
Put plainly: co-IP.

B1: apoHem1 (PLP-free Hem1, yeast ALA synthase), purified recombinant (enzyme)
chain: not shown
Take B1: the “fold amount bound relative to holoHem1” value is around 10 fold.

For the origin of these results see PMC4467794 (Cell, 2015).
